What was measured:
DICER (human) = DICER (human) (UniProt Q9UPY3)
[1] = biological target: DICER;ARGONAUTE2 (AGO2) (human;human) (UniProt Q9UPY3+Q9UKV8); experiment: competition (fluorogenic siRNA processing); conditions: 80 nM BoPsi664, 30 nM each enzyme; Assay Buffer with 1 mM free Mg2+ (full composition not in the material), 37 C; indirect read-out by competitive inhibition of fluorogenic siRNA processing, no …

K d,app from a Morrison-equation fit of enzymatic activity: DICER (25 nM) titrated with AGO2, fluorogenic DICER substrate BoGD664 (250 nM), 37°C (DICER (human)) [nM]	K d,app from a Morrison-equation fit of enzymatic activity: DICER (25 nM) titrated with AGO2, fluorogenic DICER substrate BoPD664 (250 nM), 37°C (DICER (human)) [nM]	molar ratio AGO2:DICER at which enzymatic activity on DICER substrates stops rising (titration of DICER, 25 nM, with AGO2) (molar ratio AGO2:DICER) (DICER (human))	Substance	IC50 [1] [nM]
2.2	0.54	1	ARGONAUTE2 (from UniProt Q9UKV8 1-859) (enzyme)	–
–	–	–	AllStars Negative Control siRNA	209
